Experimental findings from patent US20250302942A1 (LG CHEM, published 2025) are described below.

The target of the assay is T1, ACE2-Fc (LG chem) (human, UniProt Q9BYF1 18-740).
T1 construct: extracellular domain; also called ACE2-ED; extracellular domain of human Angiotensin Converting Enzyme 2 protein; not shown: Fc part of ACE2-Fc
The assay is described as follows: BLI (Octet QKe), ACE2-Fc captured on Protein A sensor, analyte at 100 ug/mL.

T1 sequence (Q9BYF1 18-740): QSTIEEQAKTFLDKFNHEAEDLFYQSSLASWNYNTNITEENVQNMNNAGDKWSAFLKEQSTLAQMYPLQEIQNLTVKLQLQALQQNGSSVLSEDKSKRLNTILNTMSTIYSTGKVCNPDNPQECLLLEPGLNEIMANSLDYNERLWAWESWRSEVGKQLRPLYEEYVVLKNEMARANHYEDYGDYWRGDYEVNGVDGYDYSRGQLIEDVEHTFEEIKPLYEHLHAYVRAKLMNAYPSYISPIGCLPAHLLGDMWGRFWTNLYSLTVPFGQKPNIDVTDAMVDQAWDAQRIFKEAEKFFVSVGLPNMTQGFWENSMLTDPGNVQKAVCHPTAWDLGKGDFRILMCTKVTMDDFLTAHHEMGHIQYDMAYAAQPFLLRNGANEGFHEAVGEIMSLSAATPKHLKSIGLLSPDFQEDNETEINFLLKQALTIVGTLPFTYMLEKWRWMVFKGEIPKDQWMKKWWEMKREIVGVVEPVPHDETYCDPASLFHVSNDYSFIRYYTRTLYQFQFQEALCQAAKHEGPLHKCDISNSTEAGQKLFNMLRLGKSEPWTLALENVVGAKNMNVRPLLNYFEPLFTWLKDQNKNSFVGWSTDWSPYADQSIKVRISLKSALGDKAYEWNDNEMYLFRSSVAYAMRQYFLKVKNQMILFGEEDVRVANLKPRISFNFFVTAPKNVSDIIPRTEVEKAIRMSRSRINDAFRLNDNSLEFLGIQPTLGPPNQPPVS

B1: Hepatitis B surface antigen (HBsAg) VLP (other)
chain: MESTTSGFLGPLLVLQAGFFLLTRILTIPQSLDSWWTSLNFLGGAPTCPGQNSQSPTSNHSPTSCPPICPGYRWMCLRRFIIFLFILLLCLIFLLVLLDYQGMLPVCPLLPGTSTTSTGPCKTCTIPAQGTSMFPSCCCTKPSDGNCTCIPIPSSWAFARFLWEWASVRFSWLSLLVPFVQWFAGLSPTVWLSVIWMMWYWGPSLYNILSPFLPLLPIFFCLWVYI
notes: also called HBsAg1
For the molecule B1, the “ACE2 Binding activity” value was determined as 0.24.
